Experimental data from publication PMC7997659, “Architecture and structural dynamics of the heteromeric GluK2/K5 kainate receptor” (eLife, 2021).
Values belong to the binder of their own block, whether it stands above or below them.

B1: GluK2em (rat GluK2 cryo-EM expression construct) (receptor, UniProt P42260 32-908, looked up)
chain: TTHVLRFGGIFEYVESGPMGAEELAFRFAVNTINRNRTLLPNTTLTYDTQKINLYDSFEASKKACDQLSLGVAAIFGPSHSSSANAVQSICNALGVPHIQTRWKHQVSDNKDSFYVSLYPDFSSLSRAILDLVQFFKWKTVTVVYDDSTGLIRLQELIKAPSRYNLRLKIRQLPADTKDAKPLLKEMKRGKEFHVIFDCSHEMAAGILKQALAMGMMTEYYHYIFTTLDLFALDVEPYRYSGVNMTGFRILNTENTQVSSIIEKWSMERLQAPPKPDSGLLDGFMTTDAALMYDAVHVVSVAVQQFPQMTVSSLQCNRHKPWRFGTRFMSLIKEAHWEGLTGRITFNKTNGLRTDFDLDVISLKEEGLEKIGTWDPASGLNMTESQKGKPANITDSLSNRSLIVTTILEEPYVLFKKSDKPLYGNDRFEGYCIDLLRELSTILGFTYEIRLVEDGKYGAQDDVNGQWNGMVRELIDHKADLAVAPLAITYVREKVIDFSKPFMTLGISILYRKPNGTNPGVFSFLNPLSPDIWMYVLLAYLGVSVVLFVIARFSPYEWYNPHPSNPDSDVVENNFTLLNSFWFGVGALMQQGSELMPKALSTRIVGGIWWFFTLIIISSYTANLAAFLTVERMESPIDSADDLAKQTKIEYGAVEDGATMTFFKKSKISTYDKMWAFMSSRRQSVLVKSNEEGIQRVLTSDYAFLMESTTIEFVTQRNCNLTQIGGLIDSKGYGVGTPMGSPYRDKITIAILQLQEEGKLHMMKEKWWRGNGCPEEESKEASALGVQNIGGIFIVLAAGLVLSVFVAVGEFLYKSKKNAQLEKRSFCSAMVEELRMSLKCQRRLKHKPQAPVIVKTEEVINMHTFNDRRLPGKETMA
modifications: N-linked glycans at N67, N378, N412, N546
notes: signal peptide in the construct; rat GluK2 (GRIK2_RAT), full-length gene, RNA-edited at position 567 (I to V), with C576V and C595S; Two copies stand in the GluK2/K5em tetramer (B/D positions); No thrombin cleavage step is told in the purification; also called B/D subunits; source: HEK293S GnTI- cells, BacMam, co-expressed with GluK5em, purified (Strep-Tactin, 1D4 resin, Superose 6); HEK293T, …

Key:
[1] = target: the molecule itself; assay: cryo-EM structure; GluK2/K5em co-expressed and co-purified in DDM/CHS, 3.7 mg/mL, with 1 mM CNQX (antagonist-bound); full-length 5.3 Å, ATD layer 3.6 Å, LBD-TMD 4.2 Å
wild-type GluK2 (rat) = wild-type GluK2 (rat) (UniProt P42260)
[2] = target: B1; assay: cryo-EM structure; GluK2/K5em co-expressed and co-purified in DDM/CHS, 3.7 mg/mL, with 1 mM CNQX (antagonist-bound); full-length 5.3 Å, ATD layer 3.6 Å, LBD-TMD 4.2 Å; conditions: both partners purified

Binder: B1
- binding result [1]: binds

- deactivation current decay after a 1 ms pulse of 1 mM L-Glu, outside-out patches of HEK293T cells co-transfected with wild-type GluK2 and GluK5; weighted τ (wild-type GluK2 (rat)): 23.6 ms
- deactivation current decay after a 1 ms pulse of 1 mM L-Glu, outside-out patches of HEK293T cells co-transfected with wild-type GluK2 and GluK5; τ3 (slow component) (wild-type GluK2 (rat)): 60 ms
B2: wild-type GluK5 (receptor)
chain: NPSCQVLSSLRMAAILDDQTVCGRGERLALALAREQINGIIEVPAKARVEVDIFELQRDSQYETTDTMCQILPKGVVSVLGPSSSPASASTVSHICGEKEIPHIKVGPEETPRLQYLRFASVSLYPSNEDVSLAVSRILKSFNYPSASLICAKAECLLRLEELVRGFLISKETLSVRMLDDSRDPTPLLKEIRDDKVSTIIIDANASISHLVLRKASELGMTSAFYKYILTTMDFPILHLDGIVEDSSNILGFSMFNTSHPFYPEFVRSLNMSWRENCEASTYPGPALSAALMFDAVHVVVSAVRELNRSQEIGVKPLACTSANIWPHGTSLMNYLRMVEYDGLTGRVEFNSKGQRTNYTLRILEKSRQGHREIGVWYSNRTLAMNATTLDINLSQTLANKTLVVTTILENPYVMRRPNFQALSGNERFEGFCVDMLRELAELLRFRYRLRLVEDGLYGAPEPNGSWTGMVGELINRKADLAVAAFTITAEREKVIDFSKPFMTLGISILYRVHMGRKPGYFSFLDPFSPAVWLFMLLAYLAVSCVLFLAARLSPYEWYNPHPCLRARPHILENQYTLGNSLWFPVGGFMQQGSEIMPRALSTRCVSGVWWAFTLIIISSYTANLAAFLTVQRMEVPVESADDLADQTNIEYGTIHAGSTMTFFQNSRYQTYQRMWNYMQSKQPSVFVKSTEEGIARVLNSRYAFLLESTMNEYHRRLNCNLTQIGGLLDTKGYGIGMPLGSPFRDEITLAILQLQENNRLEILKRKWWEGGRCPKEEDHRAKGLGMENIGGIFVVLICGLIIAVFVAVMEFIWSTRRSAESEEVSVCQEMLQELRHAVSCRKTSRSRRRRRPGGPSRALLSLRAVREMRLSNGKLYSAGAGGDAGAHGGPQRLLDDPGPPGGPRPQAPTPCTHVRVCQECRRIQALRASGAGAPPRGLGTPAEATSPPRPRPGPTGPRELTEHE

- stoichiometry N [2]: 1 GluK5 per GluK2 (printed as 2:2)
B3: GluK5em (rat GluK5 cryo-EM expression construct) (receptor)
chain: NPSCQVLSSLRMAAILDDQTVCGRGERLALALAREQINGIIEVPAKARVEVDIFELQRDSQYETTDTMCQILPKGVVSVLGPSSSPASASTVSHICGEKEIPHIKVGPEETPRLQYLRFASVSLYPSNEDVSLAVSRILKSFNYPSASLICAKAECLLRLEELVRGFLISKETLSVRMLDDSRDPTPLLKEIRDDKVSTIIIDANASISHLVLRKASELGMTSAFYKYILTTMDFPILHLDGIVEDSSNILGFSMFNTSHPFYPEFVRSLNMSWRENCEASTYPGPALSAALMFDAVHVVVSAVRELNRSQEIGVKPLACTSANIWPHGTSLMNYLRMVEYDGLTGRVEFNSKGQRTNYTLRILEKSRQGHREIGVWYSNRTLAMNATTLDINLSQTLANKTLVVTTILENPYVMRRPNFQALSGNERFEGFCVDMLRELAELLRFRYRLRLVEDGLYGAPEPNGSWTGMVGELINRKADLAVAAFTITAEREKVIDFSKPFMTLGISILYRVHMGRKPGYFSFLDPFSPAVWLFMLLAYLAVSVVLFLAARLSPYEWYNPHPSLRARPHILENQYTLGNSLWFPVGGFMQQGSEIMPRALSTRIVSGVWWAFTLIIISSYTANLAAFLTVQRMEVPVESADDLADQTNIEYGTIHAGSTMTFFQNSRYQTYQRMWNYMQSKQPSVFVKSTEEGIARVLNSRYAFLLESTMNEYHRRLNCNLTQIGGLLDTKGYGIGMPLGSPFRDEITLAILQLQENNRLEILKRKWWEGGRCPKEEDHRAKGLGMENIGGIFVVLIAGLIIAVFVAVMEFIYKSRAEAKRMK
modifications: N-linked glycans at N219, N271, N322, N372, N394
notes: signal peptide in the construct; rat GluK5 (GRIK5_RAT), from the full-length gene, truncated at position 827 after the M4 helix, four cysteines mutated; GluA2 'tail' ('A2 tail') added at the subunit C-terminus in place of the GluK5 C-terminus; GluK5 with point mutations and its C-terminus replaced by the GluA2 tail; Two copies stand in the GluK2/K5em tetramer (A/C positions); No thrombin cleavage …
